Measurements as given in patent US20210403552A1 (SHANGHAI GENBASE BIOTECHNOLOGY, published 2021).
Where two headings read alike, the source gives them in different places.

Experiments:
human CLDN18.2 [1] = target: T1, human CLDN18.2 (human); assay: imaging cytometry (% fluorescent cells), OCUM1-hCLDN18.2 cells
T1 construct: over-expressed on HEK293T or OCUM-1 cells by lentivirus; KATO-III and NUGC4 gastric cancer cells express it naturally; also called hCLDN18.2; hCLDNA18.2
Excerpt: (§1) HEK293T-hCLDN18.2 and OCUM-1-hCLDN18.2 expressing human CLDN18.2 (hCLDN18.2), or HEK293T-mCLDN18.2 expressing mouse CLDN18.2 (mCLDN18.2) and the corresponding negative control cell line HEK293T were used; or HEK293T-hCLDN18.1 and CHOS-hCLDN18.1 expressing human CLDN18.1 (hCLDN18.1) were used. DyLight488 goat anti-mouse IgG (Abcam, Catalog No. ab97015) or DyLight488 goat anti-human IgG (Abcam, Catalog No. ab97003) was used as secondary antibody. Binding curves were generated by using the following method.
(§2) 10,000 cells were plated in 100 μL of DMEM containing 10% FBS per well in a flat-bottomed 96-well plate. After the cells adhered or were settled to the bottom of the wells overnight, the supernatant was removed on the next day. 3-Fold gradient dilution of antibody was performed by diluting 1/3 of the total volume (i.e., 100 μL) in 200 μL of DMEM. 100 μL of the diluted antibody (the supernatants of fused clones or subclones was used in the screening) was added to each well of the cell plate, 100 μL of DMEM was added to the corresponding negative control well, and incubation was carried out for 1 hour at room temperature. After removing the supernatant, 100 μL of secondary antibody (5 μg/mL, diluted in DMEM) was added to each well, and incubated at room temperature for 0.5 hours. The supernatant was removed after staining, followed by washing with PBS once. 100 μL of PBS was added to each well, and then reading was carried out on the cytometer.
(§3) A full-field scanning cytometer (Nexcelom, Celigo® Image Cytometer) was used to measure the readings of the experimental plate. During the measurement, high-speed scanning imaging of the cells in the well was simultaneously performed in the green fluorescent channel corresponding to the secondary antibody and in the bright field channel. The cells that bound the antibody were counted in the image obtained from the green fluorescent channel under the parameters set in accordance with the morphology and fluorescence intensity of the fluorescently labeled cells, and the adhered cells were counted in the image obtained from the bright field channel under the parameters set in accordance with the morphology of the cells.

human CLDN18.2 [2] = target: T1, human CLDN18.2; assay: imaging cytometry (% fluorescent cells), HEK293-hCLDN18.2 cells
Excerpt: as §1, §2, §3

mouse CLDN18.2 = target: T2, mouse CLDN18.2 (mouse, UniProt P56857 10-264); assay: imaging cytometry (% fluorescent cells), HEK293-mCLDN18.2 cells
T2 construct: over-expressed on HEK293T cells by lentivirus; also called mCLDN18.2; murine CLDN18.2
T2 chain: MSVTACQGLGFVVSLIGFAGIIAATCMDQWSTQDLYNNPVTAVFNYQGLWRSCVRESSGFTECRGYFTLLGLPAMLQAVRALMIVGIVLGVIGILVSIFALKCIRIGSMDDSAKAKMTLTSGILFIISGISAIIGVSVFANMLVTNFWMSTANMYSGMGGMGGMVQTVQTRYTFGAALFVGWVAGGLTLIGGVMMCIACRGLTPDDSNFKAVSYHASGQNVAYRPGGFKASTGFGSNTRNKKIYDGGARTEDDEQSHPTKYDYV
Excerpt: as §1, §2, §3

human CLDN18.1 = target: T3, human CLDN18.1 (human, UniProt P56856 1-261); assay: imaging cytometry (% fluorescent cells), HEK293-hCLDN18.1 cells
T3 construct: over-expressed on HEK293T or CHOS cells by lentivirus; also called hCLDN18.1
Excerpt: as §1
10,000 cells were plated in 100 μL of DMEM containing 10% FBS per well in a flat-bottomed 96-well plate. After the cells adhered or were settled to the bottom of the wells overnight, the supernatant was removed on the next day. […] 100 μL of PBS was added to each well, and then reading was carried out on the cytometer.
A full-field scanning cytometer (Nexcelom, Celigo® Image Cytometer) was used to measure the readings of the experimental plate. […] The cells that bound the antibody were counted in the image obtained from the green fluorescent channel under the parameters set in accordance with the morphology and fluorescence intensity of the fluorescently labeled cells, and the adhered cells were counted in the image obtained from the bright field channel under the parameters set in accordance with the morphology of the cells.

human CLDN18.2 [3] = target: T1, human CLDN18.2; assay: cell-based or functional assay
human CLDN18.2 [4] = target: T1, human CLDN18.2; assay: cell-based or functional assay; remark: listed apart in the source
human CLDN18.2 [5] = target: T1, human CLDN18.2; assay: imaging cytometry (% fluorescent cells), HEK293T-hCLDN18.2 cells
Description: as §2
as §3, with “cells. […] The data analysis was performed using GraphPad.” for “cells.”

human CLDN18.2 [6] = target: T1, human CLDN18.2; assay: cell-based or functional assay; remark: listed apart in the source
human CLDN18.2 [7] = target: T1, human CLDN18.2; assay: cell-based or functional assay; remark: listed apart in the source
human CLDN18.2 [8] = target: T1, human CLDN18.2; assay: cell-based or functional assay; remark: listed apart in the source
human CLDN18.2 [9] = target: T1, human CLDN18.2; assay: imaging cytometry (% fluorescent cells), HEK293T-hCLDN18.2 cells; remark: listed apart in the source
Description: as §2
as §3, with “cells. […] The data analysis was performed using GraphPad.” for “cells.”

T3 sequence (P56856 whole entry): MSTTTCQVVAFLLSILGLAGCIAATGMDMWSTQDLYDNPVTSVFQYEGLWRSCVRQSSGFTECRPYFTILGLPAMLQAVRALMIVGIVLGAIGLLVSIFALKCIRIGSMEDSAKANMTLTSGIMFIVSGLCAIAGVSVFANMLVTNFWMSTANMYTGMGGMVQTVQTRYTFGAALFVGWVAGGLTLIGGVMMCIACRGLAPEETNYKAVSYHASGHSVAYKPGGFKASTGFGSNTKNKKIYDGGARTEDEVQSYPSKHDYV

Binder	ADCC EC50, KATO-III target cells, human PBMC effectors (human CLDN18.2 [3]) [µg/mL]	CDC EC50, KATO-III target cells, human serum (human CLDN18.2 [4]) [µg/mL]	EC50 (human CLDN18.2 [5]) [µg/mL]	ADCC EC50, HEK293T-hCLDN18.2 target cells, human PBMC effectors (human CLDN18.2 [6]) [µg/mL]	CDC EC50, HEK293T-hCLDN18.2 target cells, human serum (human CLDN18.2 [7]) [µg/mL]	Internalization percentage (%), HEK293T-hCLDN18.2 cells, flow cytometry, 10 µg/mL antibody (human CLDN18.2 [8]) [%]	EC50 (human CLDN18.2 [9]) [µg/mL]	also measured
5F9 (antibody, V domains shown, murine monoclonal antibody purified from hybridoma culture supernatant) VH: QVQLQQSGAELVKPGASVKLSCKASGYTFTSYWMHWVKQRPGQGLEWIGMIHPNSVSTNYNEKFKSKATLTVDKSSSTAYMQLSSLTSEDSAVYYCAVYFDYWGQGTTLTVSS VL: DIQVTQSPSSLSASLGERVSLTCRASQDIGSSLNWLQQEPDGTIKRLIYASSSLNSGVPKRFSVSRSGSDYSLTISSLESEDFVDYYCLQYATSPPTFGGGTKLEIK	–	–	–	–	–	–	–	EC50 (human CLDN18.2 [1]): 0.068 µg/mL; EC50 (human CLDN18.2 [2]): 0.091 µg/mL; EC50 (mouse CLDN18.2): 0.179 µg/mL; EC50 (human CLDN18.1): 0.714 µg/mL
7004-09hu09 (antibody, human IgG1, kappa, V domains shown, humanized antibody of murine 44F7, human IgG1/kappa constant regions) VH: QVQLVQSGAEVKKPGASVKVSCKASGYTFTSYNMHWVRQAPGQGLEWMGTIYPGNGDTSYNQKFQGRVTMTRDKSTSTVYMELSSLRSEDTAVYFCARGGYYGNSLDYWGQGTLVTVSA VL: DIVMTQSPDSLAVSLGERATINCKSSQSLLNSGNQKNYLAWYQQKPGQPPKLLIYWASTRESGVPDRFSGSGSGTDFTLTISSLQAEDVAVYYCQNAYYYPFTFGQGTKLEIKR	0.0028	0.33	0.051	–	–	–	–	–
7004-09hu15 (antibody, human IgG1, kappa, V domains shown, humanized antibody of murine 44F7, human IgG1/kappa constant regions) VH: QVQLVQSGAEVKKPGASVKVSCKASGYTFTSYYMHWVRQAPGQGLEWMGTIYPGNGDTSYNQKFQGRVTMTRDKSTSTVYMELSSLRSEDTAVYFCARGGYYGNSLDYWGQGTLVTVSA VL: DIVMTQSPDSLAVSLGERATINCKSSQSVLNSGNQKNYLAWYQQKPGQPPKLLIYWASTRESGVPDRFSGSGSGTDFTLTISSLQAEDVAVYYCQNAYYYPFTFGQGTKLEIKR	0.0061	0.27	0.008	–	–	–	–	–
7004-09hu10 (antibody, human IgG1, kappa, V domains shown, humanized antibody of murine 44F7, human IgG1/kappa constant regions) VH: QVQLVQSGAEVKKPGASVKVSCKASGYTFTSYYMHWVRQAPGQGLEWMGTIYPGNGDTSYNQKFQGRVTMTRDKSTSTVYMELSSLRSEDTAVYFCARGGYYGNSLDYWGQGTLVTVSA VL: DIVMTQSPDSLAVSLGERATINCKSSQSLLNSGNQKNYLTWYQQKPGQPPKLLIYWASTRESGVPDRFSGSGSGTDFTLTISSLQAEDVAVYYCQNAYYYPFTFGQGTKLEIKR	0.0033	0.27	0.047	–	–	–	–	–
44F7-chIgG1 (antibody, V domains shown, human-mouse chimeric antibody, human IgG1/kappa constant regions; also called parental chimeric antibody) VH: QVQLQQSGAELVRPGASVKMSCKASGYTFTSYNMHWVKQAPRQGLEWIGTIYPGNGDTSYNQKFKGKATLTVDKSSSTAYMQLSSLTSEDSAVYFCARGGYYGNSLDYWGQGTTLTVSS VL: DIQMTQSPSSLTVTAGEKVTMSCKSSQSLLNSGNQKNYLTWYQQKPGQPPKLLIYWASTRESGVPDRFTGSGSGTDFTLTISSVQAEDLAVYYCQNAYYYPFTFGSGTKLEIKR	0.0117	0.52	0.012	0.0078	0.6	-1.5	0.027	ADCC EC50, KATO-III target cells, human PBMC effectors (human CLDN18.2 [6]): 0.099 µg/mL; ADCC EC50, NUGC4 target cells, human PBMC effectors (human CLDN18.2 [6]): 0.047 µg/mL; CDC EC50, KATO-III target cells, human serum (human CLDN18.2 [7]): 0.18 µg/mL
27B5-chIgG1 (antibody, V domains shown, human-mouse chimeric antibody, human IgG1/kappa constant regions) VH: QVQLQQPGTELVKPGASVKLSCKASGYTFTSYWMHWVKQRPGQGLEWIGNIHPSNGGSNHNEKFKSKATLTVDKSSSTAYMQLSSLTSEDSAVYYCAPIYYGNSLAYWGHGTLVTVSA VL: DVVMTQSPSSLTVTAGEKVTMSCKSSQSLLNSGNQKNYLTWYQQKPGQPPKLLLYWASTRESGVPDRFTGSGSGTDFTLTISSVQAEDLAVYYCQNSYFYPFTFGSGTKLEIKR	–	–	–	0.0249	5.17	-2.2	0.108	–
175D10 (antibody, human IgG1, kappa, V domains shown) VH: QVQLQQPGAELVRPGASVKLSCKASGYTFTSYWINWVKQRPGQGLEWIGNIYPSDSYTNYNQKFKDKATLTVDKSSSTAYMQLSSPTSEDSAVYYCTRSWRGNSFDYWGQGTTLTVSS VL: DIVMTQSPSSLTVTAGEKVTMSCKSSQSLLNSGNQKNYLTWYQQKPGQPPKLLIYWASTRESGVPDRFTGSGSGTDFTLTISSVQAEDLAVYYCQNDYSYPFTFGSGTKLEIKR	0.788	34.8	0.035	0.058	18.2	–	0.536	ADCC EC50, KATO-III target cells, human PBMC effectors (human CLDN18.2 [6]): 2.4 µg/mL; EC50 (human CLDN18.2 [1]): 6.54 µg/mL; EC50 (mouse CLDN18.2): 0.81 µg/mL
37B1-chIgG1 (antibody, V domains shown, human-mouse chimeric antibody, human IgG1/kappa constant regions) VH: EVRLQQSGPELVKPGASVKMSCKASGYSFTDYNMHWVKQSHGKSPEWVGYINPNKGGTGYNQKFKGKATLTVNKSSSTANMELRSLTSEDSAVYYCARIWYGNSFAYWGQGTLVTVSA VL: DVVMTQSPSSLTVTAGEKVTMSCKSSQSLLNSGNQKNYLTWYQQKPGQPPKLLIYWASTRESGVPDRFTGSGSGTDFTLTISSVQAEDLAVYFCQNDYFYPFTFGSGTKLEIKR	–	–	–	0.0126	1.93	-3.2	0.031	–
44A8-chIgG1 (antibody, V domains shown, human-mouse chimeric antibody, human IgG1/kappa constant regions) VH: EVRLQQSGPELVKPGASVKMSCKASGYTFTDYNMHWVKQSHGKSLEWIGYINPKNGGIRYNQKFTGKATLTVNKSSSTAYMELRSLTSEDSAVYYCARGGYYGNTLDNWGQGTSVTVSS VL: DIVMTQSPSSLTLTAGEKVTMSCKSSQSLLNSGNQKNYLTWYQQKPGQPPKLLIYWASTSESGVPDRFTGSGSGTDFTLTISSVQAEDLAIYYCQNAYFYPWTFGGGTKLEIKR	–	–	–	0.0156	2.4	2.5	0.069	–
